# Measured values taken from the supplement of paper PMC10567573.
# B1: ACSBG2 (parent)
# chain: TPMTIPEFFRESVNRFGTYPALAS
# Variants of: B1
# Test: protein stability index of a GFP-peptide fusion (GPS, HEK-293T) (PSI 1-6); higher = more stable
# Conditions: c terminus: a fixed tail appended
# 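Also: lentivirally expressed fusions sorted by FACS into six bins by GFP to DsRed ratio, PSI derived from sequencing read proportions per bin multiplied by bin number.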
row,Variant,protein stability index
1,TPMTIPEFFRESVNRFGTYYALAS [P20Y],1.56
2,TPMTIPEFFRESVNRFGTYVALAS [P20V],2.41
3,TPMTIPEFFRESVNRFGTYTALAS [P20T],1.48
4,TPMTIPEFFRESVNRFGTYWALAS [P20W],2.11
5,TPMTIPEFFRESVNRFGTYPALCS [A23C],1.77
6,TPMTIPEFFRESVNRFGTYPALRS [A23R],2.56
7,TPMTIPEFFRESVNRFGTYPALYS [A23Y],1.82
8,TPMTIPEFFRESVNRFGTYPALMS [A23M],1.97
9,TPMTIPEFFRESVNRFGTYPALFS [A23F],1.67
10,TPMTIPEFFRESVNRFGTYPALQS [A23Q],2.69
11,TPMTIPEFFRESVNRFGTYPALPS [A23P],2.2
12,TPMTIPEFFRESVNRFGTYPALKS [A23K],2.71
13,TPMTIPEFFRESVNRFGTYPALWS [A23W],2.55
14,TPMTIPEFFRESVNRFGTYPALTS [A23T],2.33
15,TPMTIPEFFRESVNRFGTYPALLS [A23L],2.19
16,TPMTIPEFFRESVNRFGTYPALNS [A23N],2.5
17,TPMTIPEFFRESVNRFGTYPALIS [A23I],2.37
18,TPMTIPEFFRESVNRFGTYPALHS [A23H],2.43
19,TPMTIPEFFRESVNRFGTYPALDS [A23D],2.88
20,TPMTIPEFFRESVNRFGTYPALVS [A23V],1.66
21,TPMTIPEFFRESVNRFGTYPALES [A23E],2.61
22,TPMTIPEFFRESVNRFGTYPALGS [A23G],2.2
23,TPMTIPEFFRESVNRFGTYPALSS [A23S],2.56
24,TPMTIPEFFRESVNRFGTYPNLAS [A21N],2.19
25,TPMTIPEFFRESVNRFGTYPCLAS [A21C],1.88
26,TPMTIPEFFRESVNRFGTYPWLAS [A21W],2.53
27,TPMTIPEFFRESVNRFGTYPLLAS [A21L],1.77

row,Variant,protein stability index
1,TPMTIPEFFRESVNRFGTYPMLAS [A21M],2.26
2,TPMTIPEFFRESVNRFGTYPRLAS [A21R],2.16
3,TPMTIPEFFRESVNRFGTYPDLAS [A21D],2.84
4,TPMTIPEFFRESVNRFGTYPVLAS [A21V],1.78
5,TPMTIPEFFRESVNRFGTYPQLAS [A21Q],2.5
6,TPMTIPEFFRESVNRFGTYPELAS [A21E],2.69
7,TPMTIPEFFRESVNRFGTYPYLAS [A21Y],2.17
8,TPMTIPEFFRESVNRFGTYPKLAS [A21K],2.87
9,TPMTIPEFFRESVNRFGTYPGLAS [A21G],2.47
10,TPMTIPEFFRESVNRFGTYPHLAS [A21H],2.32
11,TPMTIPEFFRESVNRFGTYPFLAS [A21F],1.65
12,TPMTIPEFFRESVNRFGTYPILAS [A21I],2.23
13,TPMTIPEFFRESVNRFGTYPTLAS [A21T],2.02
14,TPMTIPEFFRESVNRFGTYPPLAS [A21P],2.32
15,TPMTIPEFFRESVNRFGTYPSLAS [A21S],2.31
16,TPMTIPEFFRESVNRFGTYPALAQ [S24Q],2.08
17,TPMTIPEFFRESVNRFGTYPALAA [S24A],2.06
18,TPMTIPEFFRESVNRFGTYPALAK [S24K],2.45
19,TPMTIPEFFRESVNRFGTYPALAT [S24T],2.07
20,TPMTIPEFFRESVNRFGTYPALAL [S24L],2.04
21,TPMTIPEFFRESVNRFGTYPALAF [S24F],1.58
22,TPMTIPEFFRESVNRFGTYPALAY [S24Y],1.76
23,TPMTIPEFFRESVNRFGTYPALAM [S24M],2.67
24,TPMTIPEFFRESVNRFGTYPALAR [S24R],2.96
25,TPMTIPEFFRESVNRFGTYPALAN [S24N],2.64
26,TPMTIPEFFRESVNRFGTYPALAP [S24P],2.52
27,TPMTIPEFFRESVNRFGTYPALAE [S24E],2.83

row,Variant,protein stability index
1,TPMTIPEFFRESVNRFGTYPALAW [S24W],1.66
2,TPMTIPEFFRESVNRFGTYPALAV [S24V],1.37
3,TPMTIPEFFRESVNRFGTYPALAC [S24C],2.03
4,TPMTIPEFFRESVNRFGTYPALAD [S24D],2.87
5,TPMTIPEFFRESVNRFGTYPALAG [S24G],2.18
6,TPMTIPEFFRESVNRFGTYPALAI [S24I],1.48
7,TPMTIPEFFRESVNRFGTYPALAH [S24H],1.93
8,TPMTIPEFFRESVNRFGTYPAFAS [L22F],2.63
9,TPMTIPEFFRESVNRFGTYPAKAS [L22K],3.08
10,TPMTIPEFFRESVNRFGTYPADAS [L22D],3.19
11,TPMTIPEFFRESVNRFGTYPAHAS [L22H],2.61
12,TPMTIPEFFRESVNRFGTYPAIAS [L22I],2.34
13,TPMTIPEFFRESVNRFGTYPAYAS [L22Y],1.93
14,TPMTIPEFFRESVNRFGTYPAPAS [L22P],2.63
15,TPMTIPEFFRESVNRFGTYPARAS [L22R],3.12
16,TPMTIPEFFRESVNRFGTYPATAS [L22T],2.88
17,TPMTIPEFFRESVNRFGTYPAQAS [L22Q],2.5
18,TPMTIPEFFRESVNRFGTYPAWAS [L22W],2.57
19,TPMTIPEFFRESVNRFGTYPAGAS [L22G],3
20,TPMTIPEFFRESVNRFGTYPASAS [L22S],3.04
21,TPMTIPEFFRESVNRFGTYPAAAS [L22A],2.51
22,TPMTIPEFFRESVNRFGTYPANAS [L22N],3.45
23,TPMTIPEFFRESVNRFGTYPAVAS [L22V],2.02
24,TPMTIPEFFRESVNRFGTYPAMAS [L22M],1.88
25,TPMTIPEFFRESVNRFGTYPAEAS [L22E],3.37
26,TPMTIPEFFRESVNRFGTYPACAS [L22C],2.54
